The values below come from US20250136718A1 (MABWELL THERAPEUTICS, published 2025).

For test [1], the target named is T1, human TMPRSS6 (matriptase-2) expressed on HEK293T cells, huTMPRSS6-(His)6 (UniProt Q8IU80 10-811).
T1 chain: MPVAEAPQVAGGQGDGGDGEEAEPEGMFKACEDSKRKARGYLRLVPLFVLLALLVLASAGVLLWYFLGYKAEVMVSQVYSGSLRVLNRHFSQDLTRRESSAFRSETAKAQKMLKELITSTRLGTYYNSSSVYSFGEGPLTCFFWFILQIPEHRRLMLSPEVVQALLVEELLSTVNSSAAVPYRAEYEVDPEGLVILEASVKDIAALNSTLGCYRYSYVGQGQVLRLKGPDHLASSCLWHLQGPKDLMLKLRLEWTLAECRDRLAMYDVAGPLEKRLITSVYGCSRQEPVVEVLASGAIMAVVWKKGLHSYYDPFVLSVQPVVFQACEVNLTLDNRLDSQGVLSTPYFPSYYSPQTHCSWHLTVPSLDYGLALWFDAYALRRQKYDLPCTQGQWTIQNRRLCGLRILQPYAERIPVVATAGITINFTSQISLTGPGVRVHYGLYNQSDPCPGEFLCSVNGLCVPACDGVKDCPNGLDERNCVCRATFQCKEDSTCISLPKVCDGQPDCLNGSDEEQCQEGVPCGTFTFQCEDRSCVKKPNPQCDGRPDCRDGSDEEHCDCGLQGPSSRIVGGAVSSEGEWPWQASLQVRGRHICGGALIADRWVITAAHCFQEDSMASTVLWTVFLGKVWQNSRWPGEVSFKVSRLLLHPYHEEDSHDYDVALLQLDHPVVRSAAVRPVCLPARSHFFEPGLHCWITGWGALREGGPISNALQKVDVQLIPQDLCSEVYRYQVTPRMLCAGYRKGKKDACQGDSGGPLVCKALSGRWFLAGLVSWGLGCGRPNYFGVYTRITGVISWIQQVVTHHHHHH
Description: FACS.

Test [2] has as its target T2, cynomolgus monkey TMPRSS6 expressed on HEK293T cells, CynoTMPRSS6-(His)6 (cynomolgus monkey, UniProt Q8IU80 10-811 (human entry)).
T2 chain: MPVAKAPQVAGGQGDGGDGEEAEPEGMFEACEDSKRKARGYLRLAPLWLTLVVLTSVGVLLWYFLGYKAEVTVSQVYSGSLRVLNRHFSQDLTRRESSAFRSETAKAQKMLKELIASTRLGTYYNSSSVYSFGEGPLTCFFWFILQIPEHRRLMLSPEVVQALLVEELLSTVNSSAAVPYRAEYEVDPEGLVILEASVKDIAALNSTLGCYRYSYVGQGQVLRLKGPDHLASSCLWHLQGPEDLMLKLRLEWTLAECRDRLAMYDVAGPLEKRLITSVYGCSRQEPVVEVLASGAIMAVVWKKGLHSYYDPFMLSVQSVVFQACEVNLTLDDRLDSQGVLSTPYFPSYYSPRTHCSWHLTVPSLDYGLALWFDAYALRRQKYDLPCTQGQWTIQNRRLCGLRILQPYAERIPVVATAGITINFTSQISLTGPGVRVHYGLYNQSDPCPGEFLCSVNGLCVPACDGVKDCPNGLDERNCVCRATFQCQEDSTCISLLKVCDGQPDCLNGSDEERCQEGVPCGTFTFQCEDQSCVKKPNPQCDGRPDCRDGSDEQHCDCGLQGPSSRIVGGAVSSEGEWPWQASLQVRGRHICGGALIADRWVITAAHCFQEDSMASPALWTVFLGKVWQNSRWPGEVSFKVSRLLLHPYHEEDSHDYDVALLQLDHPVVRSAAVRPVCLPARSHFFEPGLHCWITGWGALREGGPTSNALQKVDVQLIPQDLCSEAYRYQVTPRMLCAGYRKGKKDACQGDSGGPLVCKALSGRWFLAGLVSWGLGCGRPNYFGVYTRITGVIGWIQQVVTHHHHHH
Description: summary of Example 4 (cell surface ELISA). How it is done: HEK293T cells stably expressing mouse TMPRSS6 (generated by LakePharma Inc as described above, FIGS. 4J, 4L, 4N, 4P, 4R, 4T) or cynomolgus monkey (generated in house as described above, FIGS. 4K, 4M, 4O, 4Q, 4S, 4U) were fixed with methanol (100%), and washed with dPBS (Dulbecco's phosphate-buffered saline, Corning Cellgro) before incubation with various concentrations of anti-TMPRSS6 antibodies and their humanized variants diluted in BSA medium (DMEM+1% Pen/Strep+10 mM HEPES+1 mg/ml BSA (Sigma-Aldrich)). Purified mouse IgG (FIGS. 4J-4O) or Human IgG1 (FIGS. 4P-4U) was used as a control. After incubation, cells were washed with BSA medium and then incubated with goat anti-mouse (Invitrogen, FIGS. 4J-4O) or anti-human (Millipore, FIGS. 4P-4U) IgG conjugated with HRP as a 2° antibody. Finally, cells were washed with dPBS to remove unbound antibody and color developed with ELISA liquid substrate (Sigma-Aldrich), followed by stopping the reaction with addition of the same volume of […] 1M H₂SO₄. Bound antibody was measured by absorbance at OD₄₅₀ₙₘ.

Test [3] addresses T3, mouse TMPRSS6 expressed on HEK293T cells, MoTMPRSS6-(His)6 (UniProt Q9DBI0 1-811).
T3 chain: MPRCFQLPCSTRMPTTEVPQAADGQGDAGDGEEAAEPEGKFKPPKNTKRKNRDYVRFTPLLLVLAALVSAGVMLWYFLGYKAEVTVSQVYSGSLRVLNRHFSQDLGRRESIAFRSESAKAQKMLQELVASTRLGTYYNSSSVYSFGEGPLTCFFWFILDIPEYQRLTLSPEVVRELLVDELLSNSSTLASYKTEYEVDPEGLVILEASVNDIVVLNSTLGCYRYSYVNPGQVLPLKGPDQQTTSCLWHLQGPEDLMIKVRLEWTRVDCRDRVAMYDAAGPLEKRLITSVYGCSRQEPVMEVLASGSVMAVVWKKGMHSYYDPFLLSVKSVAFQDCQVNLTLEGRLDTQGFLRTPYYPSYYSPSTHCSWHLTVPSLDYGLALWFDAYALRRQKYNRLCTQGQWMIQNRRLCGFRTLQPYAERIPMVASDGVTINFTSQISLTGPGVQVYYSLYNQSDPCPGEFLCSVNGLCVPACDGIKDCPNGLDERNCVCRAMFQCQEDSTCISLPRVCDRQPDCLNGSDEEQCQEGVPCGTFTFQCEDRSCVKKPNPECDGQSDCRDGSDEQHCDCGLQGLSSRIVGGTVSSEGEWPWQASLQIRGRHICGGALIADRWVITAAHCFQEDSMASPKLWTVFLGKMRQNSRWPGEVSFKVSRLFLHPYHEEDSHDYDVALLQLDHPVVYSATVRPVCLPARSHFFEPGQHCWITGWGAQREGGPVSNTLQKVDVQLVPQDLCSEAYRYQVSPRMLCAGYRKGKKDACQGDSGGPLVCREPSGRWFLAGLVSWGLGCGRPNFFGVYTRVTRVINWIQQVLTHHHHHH
The test is described as follows: cell surface ELISA.

B1: MWTx-003 anti-TMPRSS6 monoclonal antibody (antibody, mouse IgG2b, kappa, V domains shown)
VH: EVQLQQSGAELVKPGASVKLSCTASGFNIEDYYIHWVKERTEQGLEWIGRIDPEDGETTYAPQFQGKATIIPDTSSNTAYMQLSSLTSEDAAVYYCARSIYLDPMDYWGQGTSVTVSS
VL: DIVMTQSHKFMSTSVGDRVSITCKASQDVTTAVAWYQQKPGQSPKILIYWATTRHTGVPDRFTGSISGTTYILTISSVQAEDLALYYCQQHYSTPYTFGGGTKLEIKR
notes: Mouse monoclonal antibody from hybridoma (ATCC PTA-126761); The recombinant version r4K12B has the same HC and LC; also called r4K12B; recombinant MWTx-003
As for B1, it took 0.2 µg/mL to reach a half-maximal effect in test [1] (EC50).

B2: humanized anti-TMPRSS6 antibody variant hzMWTx-002 Var (antibody, human IgG1, kappa, N297A, V domains shown)
VH: EVQLVQSGAEVKKPGASVKVSCKASGFNIKDYYIHWVRQATGQGLEWMGRIDPEDAESEYAPKFQGRVTITADTSTDTAYMELSSLRSEDTAVYYCTRGDSMMVTYFDYWGQGTLVTVSS
VL: DIQMTQSPSSLSASVGDRVTITCKASQDVSTAVAWYQQKPGKAPKLLIYWAFTRHTGVPSRFSGSGSGTDYALTISSLQPEDFATYYCQQHYRSPWTFGGGTKVEIKR
notes: Human IgG1 / kappa
Regarding B2, the binding result in test [2] is “binds”.

B3: MWTx-002 anti-TMPRSS6 monoclonal antibody (antibody, mouse IgG2b, kappa, V domains shown)
VH: EVQLQQSGAELVKPGASVKLSCTASGFNIKDYYIHWVKERTEQGLEWFGRIDPEDGESEYAPKFQGKATLTADTSSNTAYLQLSSLTSEDTAVYYCTRGDSMMVTYFDYWGQGTTLTVSS
VL: DIVMTQSHKFMSTSVGDRVSITCKASQDVSTAVAWYQQKPGQSPKLLIYWAFTRHTGVPDRFTSTGSGTDYALTISSVQAEDLALYYCQQHYRSPWTFGGGTKLEIKR
notes: Mouse monoclonal antibody from hybridoma (ATCC PTA-126760)
B3 had an EC50 in test [1] of 0.2 µg/mL.

B4: humanized anti-TMPRSS6 antibody variant hzMWTx-001 Var (antibody, human IgG1, kappa, N297A, V domains shown)
VH: EVQLVQSGAEVKKPGASVKVSCKASGYTFTSYWITWVRQAPGQRLEWIGNIYPGSGSTYYNEKFKSKATITRDTSSRTAYMELSSLRSEDTAVYYCAPYDADYAMDYWGQGTLVTVSS
VL: DIQMTQSPSSLSASVGDRVTITCKASQDISNYLSWFQQKPGKAPKLLIYRANRLVEGVPSRFSGSGSGTDFTLTISSLQPEDFATYFCLQYDEFPLTFGGGTKVEIKR
notes: Human IgG1 / kappa
With B4, the response in test [3] was half-maximal at 0.03 µg/mL (EC50). In addition, the binding result in test [2] is reported as “binds”.

B5: humanized anti-TMPRSS6 antibody variant hzMWTx-003 Var (antibody, human IgG1, kappa, L234A L235A, V domains shown)
VH: QVQLVQSGAEVKKPGASVKVSCKASGFNIEDYYMHWVRQAPGQRLEWMGRIDPEDAETTYSPKFQGRVTIIPDTSANTAYMELSSLRSEDTAVYYCARSIYLDPMDYWGQGTLVTVSS
VL: DIQMTQSPKSLSASVGDRVTITCRASQDVTTALAWYQQKPGQSPKLLIYWATTRHSGVPSRFSGSGSGTDFTLTISSLQPEDFATYYCQQHYSTPYTFGQGTKLEIKR
notes: Human IgG1 / kappa
In test [3], B5 came in with an EC50 of 0.31 µg/mL. The binding result in test [2] is given as “binds”.

B6: MWTx-001 anti-TMPRSS6 monoclonal antibody (antibody, mouse IgG2a, kappa, V domains shown)
VH: QVQLQQPGAELAKPGASVKMSCKASGYTFTSYWITWVKQRPGQDLEWIGNIYPGSGSTYYNEKFKSKATLTVDTSSRTAYMQLSSLTSADSAVYYCAPYDSDYAMDYWGQGTSVTVSS
VL: DIKMTQSPSSMYASLGERVTITCKASQDINNYLSWFQQKPGKSPKTLIYRANRLVDGVPSRVSGSGSGQDYSLTISSLEYEDVGIYFCLQYDEFPLTFGAGTKLELKR
notes: Mouse monoclonal antibody from hybridoma (ATCC PTA-126759)
Turning to B6, the 50% effective concentration (EC50) in test [1] stood at 1 µg/mL.
